Test results from the DeepSol protein solubility set.

assay: soluble on expression in E. coli; label from the status in PepcDB or PDB records

Row | Sequence | soluble on expression in E. coli
1 | SAEEKVKDEAMQIMGMFQILPRLVVFDLDYTLWPFYCECRSKREMPSMYPQAKGILSALKEKGIEMAIASRSPTSDIANTFLDKLNIKPMFVAKEIYSSWSHKTEHFQKIHTRTGVPFTAMLFFDDEDRNIKSVSKMGVTSILVGDGVTLGAFRQGLTEFTQNHNSIEKNKQVWRDKYSGKPTSSETDKD | soluble
2 | SALIAALSVSGLPSNRFTFEGFLPAKPTARRDRLTHLAHEPRTLIFYEASHRIAECLTDLATIFGSMRIAVVARELTKIFETVLDGTLATLQTQVANDENQRKGEFVIIVQGAADQ | not soluble
3 | SANSGEGKVVCVTGASGYIASWLVKFLLSRGYTVKASVRDPSDPKKTQHLVSLEGAKERLHLFKADLLEQGSFDSAIDGCHGVFHTASPFFNDAKDPQAELIDPAVKGTLNVLNSCAKASSVKRVVVTSSMAAVGYNGKPRTPDVTVDETWFSDPELCEASKMWYVLSKTLAEDAAWKLAKEKGLDIVTINPAMVIGPLLQPTLNTSAAAILNLINGAKTFPNLSFGWVNVKDVANAHIQAFEVPSANGRYCLVERVVHHSEIVNILRELYPNLPLPERCVDENPYVPTYQVSKDKTRSLGIDYIPLKVSIKETVESLKEKGFAQF | soluble
4 | SAPFDVIGPQEPILAVVGEDAELPCRLSPNVSAKGMELRWFREKVSPAVFVSREGQEQEGEEMAEYRGRVSLVEDHIAEGSVAVRIQEVKASDDGEYRCFFRQDENYEEAIVHLKVAALGSDPHISMKVQESGEIQLECTSVGWYPEPQVQWRTHRGEEFPSMSESRNPDEEGLFTVRASVIIRDSSMKNVSCCIRNLLLGQEKEVEVSIPASFFPRLT | not soluble
5 | SAPSQAPSRDRAGQEDEDRWEARGDRKARKPLVEKKRRARINESLQELRLLLAGTEVQAKLENAEVLELTVRRVQGALRGRAREREQLQAEASERFAAGYIQCMHEVHTFVSTCQAIDATVSAELLNHLLESMPLREGSSFQDLLGDSLAGLPGGSGRSSWPPGGSPESPLSSPPGPGDDLCSDLEEIPEAELNRVPAEGPDLVSTSLGSLTAARRAQSVWRPW | soluble
6 | SAQQRALPQSKETLLQSYNKRLKDDIKSIMDNFTEIIKTAKIEDETQVSRATQGEQDNYEMHVRAANIVRAGESLMKLVSDLKQFLILNDFPSVNEAIDQRNQQLRTLQEECDRKLITLRDEISIDLYELEEEYYSSRYK | soluble
7 | SASERIIEKTPENSKFHKHQQKNYPLMSILKFHCRLLRCVSRCFTGITISYPATKHGYTKFEKLEDPLTGYTNMKRTIILDLDETLVHATTHLPGVKHDFMVMVKMEREIMPIFVVKRPGVTEFLERLGENYKVVVFTAGLEEYASQVLDKLDKNGVISQRLYRDSCTEVNGKYVKDLSLVVGKDLRSALIVDDNPSSYSLQPENGVPIKAFVDDLKDQELLNLVEFLESCYAYEDMRDAVTDLLAN | soluble
8 | SASRGKTETSKLKQNLEEQLDRLMQQLQDLEECREELDTDEYEETKKETLEQLSEFNDSLKKIMSGNMTLVDELSGMQLAIQAAISQAFKTPEVIRLFAKKQPGQLRTRLAEMDRDLMVGKLERDLYTQQKVEILTALRKLGEKLTADDEAFLSANAGAILSQFEKVSTDLGSGDKILALASFEVEKTKK | soluble
9 | SDSASQDINLNSPNKGVLSDFMTDVPVDPGVVHRTPVVEGLTEGEEEELRAELAKVEEEIVTLRQVLAAKERHCGELKRRLGLSTLGELKQNLSRSWHDVQVSTAYVKTSEKLGEWNEKVTQSDLYKKTQETLSQAGQKTSAALSTMGSAISRKLGDMSSYSIRHSISMPVMRNSATFKSFEDRVGTIKSKVVGGRENGSDNLPPSPGSGDQTLPDHAPF | soluble
10 | SDYEKFLLFGDSITEFAFNTRPIEDGKDQYALGAALVNEYTRKMDILQRGFKGYTSRWALKILPEILKHESNIVMATIFLGANDACSAGPQSVPLPEFIDNIRQMVSLMKSYHIRPIIIGPGLVDREKWEKEKSEEIALGYFRTNENFAIYSDALAKLANEEKVPFVALNKAFQQEGGDAWQQLLTDGLHFSGKGYKIFHDELLKVIETFYPQYHPKNMQYKLKDWRDVLDDGSNIMS | soluble
11 | SEAVGVAPAPAGVPEKKLLEVKESRKAAPAAPSTSMAAKWAMKKKLVGGDAGYVLEDVPHLTDYLPELPTYPNPLQDNPAYSVVKQYFVNTDDTVTQKIVVHKTSARGTHFRRAGPRQRVYFQSDEVNAAIVTCGGLCPGLNTVIRELVCGLYDMYGVTSVVGIEGGYKGFYSRNTVALTPKSVNDIHKRGGTVLGTSRGGHDTGKIVDSIKDRGINQVYIIGGDGTQKGASVIYEEVRRRGLKCSVVGVPKTIDNDIAVIDKSFGFDTAVEEAQRAINAAHVEAESAENGIGVVKLMGRNSGFIAMYATLASRDVDCCLIPESPFYLEGKGGLLEFIEKRLKDNGHMVIVVAEGAGQDLIAKSMNFVDTQDASGNKLLLDVGLWLSQKIKDHFKKKRNFPITLKYIDPTYMIRAVRSNASDNVYCTLLAHSALHGAMAGYTGFTVAPVNGRHAYIPFYRITEKQNKVVITDRMWARVLCSTNQPCFLSHEDVEHLKHDDDEHHLHNTQLLEGESSPVKDSSKCNGTAAPV | soluble
12 | SEEFLQRAKSKLNRSKRLEKVHVVIGPKSCDLDSLISTFTYAYFLDKVSPPGVLCLPVLNIPRTEFNYFTETRFILEELNISESFHIFRDEINLHQLNDEGKLSITLVGSSVLASEDKTLESAVVKVINPVEQSDANVEFRESSSSLVLKEILQEAPELITEQLAHRLRGSILFKWMTMESEKISEKQEEILSILEEKFPNLPPREDIINVLQETQFSAQGLSIEQTMLKDLKELSDGEIKVAISTVSMNLEVRVGMLF | soluble
13 | SEGSGEQPGPQPQHPGDHRIRDGDFVVLKREDVFKAVQVQRRKKVTFEKQWFYLDNVIGHSYGTAFEVTSGGSLQPKKKREEPTAETKEAGTDNRNIVDDGKSQKLTQDDIKALKDKGIKGEEIVQQLIENSTTFRDKTEFAQDKYIKKKKKKYEAIITVVKPSTRILSIMYYAREPGKINHMRYDTLAQMLTLGNIRAGNKMIVMETCAGLVLGAMMERMGGFGSIIQLYPGGGPVRAATACFGFPKSFLSGLYEFPLNKVDSLLHGTFSAKMLSSEPKDSALVEESNGTLEEKQASEQENEDSMAEAPESNHPEDQETMETISQDPEHKGPKERGSKKDYIQEKQRRQEEQRKRHLEAAALLSERNADGLIVASRFHPTPLLLSLLDFVAPSRPFVVYCQYKEPLLECYTKLRERGGVINLRLSETWLRNYQVLPDRSHPKLLMSGGGGYLLSGFTVAMDNLKADTSLKSNASTLESHETEEPAAKKRKCPESDS | soluble
14 | SESLRIIFAGTPDFAARHLDALLSSGHNVVGVFTQPDRPAGRGKKLMPSPVKVLAEEKGLPVFQPVSLRPQENQQLVAELQADVMVVVAYGLILPKAVLEMPRLGCINVHGSLLPRWRGAAPIQRSLWAGDAETGVTIMQMDVGLDTGDMLYKLSCPITAEDTSGTLYDKLAELGPQGLITTLKQLADGTAKPEVQDETLVTYAEKLSKEEARIDWSLSAAQLERCIRAFNPWPMSWLEIEGQPVKVWKASVIDTATNAAPGTILEANKQGIQVATGDGILNLLSLQPAGKKAMSAQDLLNSRREWFVPGNRLV | soluble
15 | SESPEGAGPGEIVKDVKVPQAALNVSAHETGDMCRTPVAEEEEEVGIPIPAPGFLQVTERRRLHPLSRASCLRSPSWTKTRAEQNREKQPPSDPERQGTIVDTFLTVEEPKED | soluble
16 | SETRGPQGAANPMDSSRSLGDLGPFPREVGRGAPLAPGARNPATAGASRSQGGGHEDRTADRALGPRAGEELDRESWVREKVLFLLHPERWLGTRGDPAREEVAGAEDLPHAGGEDHGEEPNYPSVFQREKRISGRRVAPPRDAADPPKYVLVRVEDYQVTQEVLQTSWAKGRMTTRTEEHFVTALTFRSSREGQPGERWGPAESRALQARTGASRVHAAGRRVSPSPGTWLEEIKL | soluble
17 | SGEEANDDKKPTTKFELERETELRFEVEASQSVQLELLTGMAEIFGTELTRNKKFTFDAGAKVAVFTWHGCSVQLSGRTEVAYVSKDTPMLLYLNTHTALEQMRRQAEKEEERGPRVMVVGPTDVGKSTVCRLLLNYAVRLGRRPTYVELDVGQGSVSIPGTMGALYIERPADVEEGFSIQAPLVYHFGSTTPGTNIKLYNKITSRLADVFNQRCEVNRRASVSGCVINTCGWVKGSGYQALVHAASAFEVDVVVVLDQERLYNELKRDLPHFVRTVLLPKSGGVVERSKDFRRECRDERIREYFYGFRGCFYPHAFNVKFSDVKIYKVGAPTIPDSCLPLGMSQEDNQLKLVPVTPGRDMVHHLLSVSTAEGTEENLSETSVAGFIVVTSVDLEHQVFTVLSPAPRPLPKNFLLIMDIRFMDLK | not soluble
18 | SGELLGTLSISHDVTEWHKIQQNLRDEMERRKDTEVALAQRDTILQTILDASPDSIGIFNENMVYQACNKPFVNALGISEVSDLIGKRLQDVIPVEMYTRLETSDLHALRQAEPVRYIDKVVSSDGHITWFDVVKSPFKDKA | not soluble
19 | SGGRRSSWIKNWTLWKHFKDYFPIHLIKTQDLDPSHNYIFGFHPHGIMAVGAFGNFSVNYSDFKDLFPGFTSYLHVLPLWFWCPVFREYVMSVGLVSVSKKSVSYMVSKEGGGNISVIVLGGAKESLDAHPGKFTLFIRQRKGFVKIALTHGASLVPVVSFGENELFKQTDNPEGSWIRTVQNKLQKIMGFALPLFHARGVFQYNFGLMTYRKAIHTVVGRPIPVRQTLNPTQEQIEELHQTYMEELRKLFEEHKGKYGIPEHETLVLK | soluble
20 | SGIVVSPILIPENQRQPFPRDVGKVVDSDRPEGSKFRLTGKGVDQDPKGTFRINENTGSVSVTRTLDRETIATYQLYVETTDASGKTLEGPVPLEVIVID | soluble
21 | SGNLLKVLTCTDLEQEPNFFLDFENAQPTEAERETWEEVDVVLKDALGILDELQAYKGAGQEIREAIQNPNDEALQDQAWAAVVPLVGKLKKFYEFSQRLEAALHSLLRALTSETYDDPTQHLEREQALAKQFAEILHFTLRFDELKMTNPAIQNDFSYYRRTLSRMRINNVPAEGENEVNNELANRISLFYADATPMLKTLSDGTTKFVSENKNLPIENTTDVLSTMASVCKVMLETPEYRSRFSSEETVSFCLRVMVGVIILYDYVHPVGAFAKSSKIDMKGCIKVLKDQPPNSVEGLLNALRYTTKHLNDESTTKTIKSMLQ | soluble
22 | SGSDVRDLNALLPAVPSLGGGGGCALPVSGAAQWAPVLDFAPPGASAYGSLGGPAPPPAPPPPPPPPPHSFIKQEPSWGGAEPHEEQCLSAFTVHFSGQFTGTAGACRYGPFGPPPPSQASSGQARMFPNAPYLPSCLESQPAIRNQGYSTVTFDGTPSYGHTPSHHAAQFPNHSFKHEDPMGQQGSLGEQQYSVPPPVYGCHTPTDSCTGSQALLLRTPYSSDNLYQMTSQLECMTWNQMNLGATLKG | soluble
23 | SHPGIDSMSSNINCENNPFSFYGNPHKSVIIHGKEGTELLKEKGEDCKTFENSQQYFLWCCVQQQMYHYQLLSTAFASYGFEPPRIPGAFPHHIPPIFNGSMKCLRDREVFNQSGFLYVNVSPDTYQETRQEAPVEQRNQWSEKSKTTSKKSICKVLFECTNSSLLENAENRSIFSKQGSGSHVGENSKNPSEDSGQSGRLSQNATAEHNVLEKHLQEEYQMAKNTVNESFDSLKECSAASVIKGSYLLSQVVHIPEDAIEPEIPPDLQGPGGHVFLRMLSRSWRQYKRALEHNE | soluble
24 | SIEFSTAITRQIVLDTETTGMNQIGAHYEGHKIIEIGAVEVVNRRLTGNNFHVYLKPDRLVDPEAFGVHGIADEFLLDKPTFAEVADEFMDYIRGAELVIHNAAFDIGFMDYEFSLLKRDIPKTNTFCKVTDSLAVARKMFPGKRNSLDALCARYEIDNSKRTLHGALLDAQILAEVYLAMTGGQTSMATRESG | soluble
